Measured values from PMC7668070 (Proceedings of the National Academy of Sciences of the …, 2020).

Target: SARS-CoV-2 spike RBD monomer (328-533), 8XHis tag, AviTag, biotinylated (SARS-CoV-2)
Experiment: flow cytometry on cells
Details: one partner purified

Row | Binder | Kd [nM]
1 | K31F/N33D/H34A/E35Q/N49D/N51S/N53S/E57G/N64D ACE2(614), Aga2p-GFP construct Y354, displayed on yeast (designed binder) QSTIEEQAKTFLDFFDAQAEDLFYQSSLASWDYSTSITEGNVQNMNDAGDKWSAFLKEQSTLAQMYPLQEIQNLTVKLQLQALQQNGSSVLSEDKSKRLNTILNTMSTIYSTGKVCNPDNPQECLLLEPGLNEIMANSLDYNERLWAWESWRSEVGKQLRPLYEEYVVLKNEMARANHYEDYGDYWRGDYEVNGVDGYDYSRGQLIEDVEHTFEEIKPLYEHLHAYVRAKLMNAYPSYISPIGCLPAHLLGDMWGRFWTNLYSLTVPFGQKPNIDVTDAMVDQAWDAQRIFKEAEKFFVSVGLPNMTQGFWENSMLTDPGNVQKAVCHPTAWDLGKGDFRILMCTKVTMDDFLTAHHEMGHIQYDMAYAAQPFLLRNGANEGFHEAVGEIMSLSAATPKHLKSIGLLSPDFQEDNETEINFLLKQALTIVGTLPFTYMLEKWRWMVFKGEIPKDQWMKKWWEMKREIVGVVEPVPHDETYCDPASLFHVSNDYSFIRYYTRTLYQFQFQEALCQAAKHEGPLHKCDISNSTEAGQKLFNMLRLGKSEPWTLALENVVGAKNMNVRPLLNYFEPLFTWLKDQNKNSFVGWSTDWSPYA | 0.45
2 | K31F/H34I/E35Q ACE2(614), Aga2p-GFP construct Y293, displayed on yeast (designed binder) QSTIEEQAKTFLDFFNIQAEDLFYQSSLASWNYNTNITEENVQNMNNAGDKWSAFLKEQSTLAQMYPLQEIQNLTVKLQLQALQQNGSSVLSEDKSKRLNTILNTMSTIYSTGKVCNPDNPQECLLLEPGLNEIMANSLDYNERLWAWESWRSEVGKQLRPLYEEYVVLKNEMARANHYEDYGDYWRGDYEVNGVDGYDYSRGQLIEDVEHTFEEIKPLYEHLHAYVRAKLMNAYPSYISPIGCLPAHLLGDMWGRFWTNLYSLTVPFGQKPNIDVTDAMVDQAWDAQRIFKEAEKFFVSVGLPNMTQGFWENSMLTDPGNVQKAVCHPTAWDLGKGDFRILMCTKVTMDDFLTAHHEMGHIQYDMAYAAQPFLLRNGANEGFHEAVGEIMSLSAATPKHLKSIGLLSPDFQEDNETEINFLLKQALTIVGTLPFTYMLEKWRWMVFKGEIPKDQWMKKWWEMKREIVGVVEPVPHDETYCDPASLFHVSNDYSFIRYYTRTLYQFQFQEALCQAAKHEGPLHKCDISNSTEAGQKLFNMLRLGKSEPWTLALENVVGAKNMNVRPLLNYFEPLFTWLKDQNKNSFVGWSTDWSPYA | 1.71
3 | S19P/N33S/H34V/F40L/N49D/L100P ACE2(614), Aga2p-GFP construct Y375, displayed on yeast (designed binder) QPTIEEQAKTFLDKFSVEAEDLLYQSSLASWDYNTNITEENVQNMNNAGDKWSAFLKEQSTLAQMYPLQEIQNLTVKLQLQAPQQNGSSVLSEDKSKRLNTILNTMSTIYSTGKVCNPDNPQECLLLEPGLNEIMANSLDYNERLWAWESWRSEVGKQLRPLYEEYVVLKNEMARANHYEDYGDYWRGDYEVNGVDGYDYSRGQLIEDVEHTFEEIKPLYEHLHAYVRAKLMNAYPSYISPIGCLPAHLLGDMWGRFWTNLYSLTVPFGQKPNIDVTDAMVDQAWDAQRIFKEAEKFFVSVGLPNMTQGFWENSMLTDPGNVQKAVCHPTAWDLGKGDFRILMCTKVTMDDFLTAHHEMGHIQYDMAYAAQPFLLRNGANEGFHEAVGEIMSLSAATPKHLKSIGLLSPDFQEDNETEINFLLKQALTIVGTLPFTYMLEKWRWMVFKGEIPKDQWMKKWWEMKREIVGVVEPVPHDETYCDPASLFHVSNDYSFIRYYTRTLYQFQFQEALCQAAKHEGPLHKCDISNSTEAGQKLFNMLRLGKSEPWTLALENVVGAKNMNVRPLLNYFEPLFTWLKDQNKNSFVGWSTDWSPYA | 0.61
4 | S19P/Q42L/L79T/N90Q ACE2(614), Aga2p-GFP construct Y355, displayed on yeast (designed binder) QPTIEEQAKTFLDKFNHEAEDLFYLSSLASWNYNTNITEENVQNMNNAGDKWSAFLKEQSTTAQMYPLQEIQQLTVKLQLQALQQNGSSVLSEDKSKRLNTILNTMSTIYSTGKVCNPDNPQECLLLEPGLNEIMANSLDYNERLWAWESWRSEVGKQLRPLYEEYVVLKNEMARANHYEDYGDYWRGDYEVNGVDGYDYSRGQLIEDVEHTFEEIKPLYEHLHAYVRAKLMNAYPSYISPIGCLPAHLLGDMWGRFWTNLYSLTVPFGQKPNIDVTDAMVDQAWDAQRIFKEAEKFFVSVGLPNMTQGFWENSMLTDPGNVQKAVCHPTAWDLGKGDFRILMCTKVTMDDFLTAHHEMGHIQYDMAYAAQPFLLRNGANEGFHEAVGEIMSLSAATPKHLKSIGLLSPDFQEDNETEINFLLKQALTIVGTLPFTYMLEKWRWMVFKGEIPKDQWMKKWWEMKREIVGVVEPVPHDETYCDPASLFHVSNDYSFIRYYTRTLYQFQFQEALCQAAKHEGPLHKCDISNSTEAGQKLFNMLRLGKSEPWTLALENVVGAKNMNVRPLLNYFEPLFTWLKDQNKNSFVGWSTDWSPYA | 0.94
5 | K31Y/W69V/L79T/L91P ACE2(614), Aga2p-GFP construct Y311, displayed on yeast (designed binder) QSTIEEQAKTFLDYFNHEAEDLFYQSSLASWNYNTNITEENVQNMNNAGDKVSAFLKEQSTTAQMYPLQEIQNPTVKLQLQALQQNGSSVLSEDKSKRLNTILNTMSTIYSTGKVCNPDNPQECLLLEPGLNEIMANSLDYNERLWAWESWRSEVGKQLRPLYEEYVVLKNEMARANHYEDYGDYWRGDYEVNGVDGYDYSRGQLIEDVEHTFEEIKPLYEHLHAYVRAKLMNAYPSYISPIGCLPAHLLGDMWGRFWTNLYSLTVPFGQKPNIDVTDAMVDQAWDAQRIFKEAEKFFVSVGLPNMTQGFWENSMLTDPGNVQKAVCHPTAWDLGKGDFRILMCTKVTMDDFLTAHHEMGHIQYDMAYAAQPFLLRNGANEGFHEAVGEIMSLSAATPKHLKSIGLLSPDFQEDNETEINFLLKQALTIVGTLPFTYMLEKWRWMVFKGEIPKDQWMKKWWEMKREIVGVVEPVPHDETYCDPASLFHVSNDYSFIRYYTRTLYQFQFQEALCQAAKHEGPLHKCDISNSTEAGQKLFNMLRLGKSEPWTLALENVVGAKNMNVRPLLNYFEPLFTWLKDQNKNSFVGWSTDWSPYA | 0.64
